Measured values published in publication PMC4168064, “Cosuppression of the chloroplast localized molecular chaperone HSP90.5 impairs plant development and chloroplast biogenesis in Arabidopsis” (BMC Research Notes, 2014).

Target: the molecule itself
Test: SEC; Superdex 200 10/30; running buffer 25 mM Tris-HCl pH 8.0, 100 mM NaCl, 10% glycerol; 600 ug of HSP90.5 62-780 or 200 ug of FLAG-tagged HSP90.5 62-780 loaded; fractions analysed by SDS-PAGE

| Protein | stoichiometry N |
| --- | --- |
| C-terminally FLAG-tagged mature HSP90.5 (HSP90.5 62-780 FLAG), N-terminally His6-tagged (domain or fragment, Arabidopsis thaliana, UniProt Q9SIF2 62-780, looked up, Arabidopsis thaliana chloroplast HSP90.5, predicted mature form, residues 62-780, amplified from pGWB402Ω-HSP90.5FLAG and cloned into pProEXHTb; also called HSP90.5FLAG; FLAG-tagged HSP90.5; source: E. coli, purified (Ni-NTA); not shown: FLAG, C-terminal, kept) DAAVAEKETTEEGSGEKFEYQAEVSRLLDLIVHSLYSHKEVFLRELVSNASDALDKLRFLSVTEPSLLGDGGDLEIRIKPDPDNGTITITDTGIGMTKEELIDCLGTIAQSGTSKFLKALKENKDLGADNGLIGQFGVGFYSAFLVAEKVVVSTKSPKSDKQYVWESVADSSSYLIREETDPDNILRRGTQITLYLREDDKYEFAESTRIKNLVKNYSQFVGFPIYTWQEKSRTIEVEEDEPVKEGEEGEPKKKKTTKTEKYWDWELANETKPLWMRNSKEVEKGEYNEFYKKAFNEFLDPLAHTHFTTEGEVEFRSILYIPGMGPLNNEDVTNPKTKNIRLYVKRVFISDDFDGELFPRYLSFVKGVVDSDDLPLNVSREILQESRIVRIMRKRLIRKTFDMIQEISESENKEDYKKFWENFGRFLKLGCIEDTGNHKRITPLLRFFSSKNEEELTSLDDYIENMGENQKAIYYLATDSLKSAKSAPFLEKLIQKDIEVLYLVEPIDEVAIQNLQTYKEKKFVDISKEDLELGDEDEVKDREAKQEFNLLCDWIKQQLGDKVAKVQVSNRLSSSPCVLVSGKFGWSANMERLMKAQALGDTSSLEFMRGRRILEINPDHPIIKDLNAACKNAPESTEATRVVDLLYDTAIISSGFTPDSPAELGNKIYEMMAMAVGGRWGRVEEEEESSTVNEGDDKSGETEVVEPSEVRAESDPWQD | 2 |
| mature HSP90.5 (HSP90.5 62-780), N-terminally His6-tagged (domain or fragment, Arabidopsis thaliana, UniProt Q9SIF2 62-780, looked up, Arabidopsis thaliana chloroplast HSP90.5, predicted mature form, residues D62-D780, cloned from an HSP90.5 cDNA into the p11 vector; also called wild type HSP90.5; AtHSP90.5; source: E. coli, purified (Ni-NTA)) DAAVAEKETTEEGSGEKFEYQAEVSRLLDLIVHSLYSHKEVFLRELVSNASDALDKLRFLSVTEPSLLGDGGDLEIRIKPDPDNGTITITDTGIGMTKEELIDCLGTIAQSGTSKFLKALKENKDLGADNGLIGQFGVGFYSAFLVAEKVVVSTKSPKSDKQYVWESVADSSSYLIREETDPDNILRRGTQITLYLREDDKYEFAESTRIKNLVKNYSQFVGFPIYTWQEKSRTIEVEEDEPVKEGEEGEPKKKKTTKTEKYWDWELANETKPLWMRNSKEVEKGEYNEFYKKAFNEFLDPLAHTHFTTEGEVEFRSILYIPGMGPLNNEDVTNPKTKNIRLYVKRVFISDDFDGELFPRYLSFVKGVVDSDDLPLNVSREILQESRIVRIMRKRLIRKTFDMIQEISESENKEDYKKFWENFGRFLKLGCIEDTGNHKRITPLLRFFSSKNEEELTSLDDYIENMGENQKAIYYLATDSLKSAKSAPFLEKLIQKDIEVLYLVEPIDEVAIQNLQTYKEKKFVDISKEDLELGDEDEVKDREAKQEFNLLCDWIKQQLGDKVAKVQVSNRLSSSPCVLVSGKFGWSANMERLMKAQALGDTSSLEFMRGRRILEINPDHPIIKDLNAACKNAPESTEATRVVDLLYDTAIISSGFTPDSPAELGNKIYEMMAMAVGGRWGRVEEEEESSTVNEGDDKSGETEVVEPSEVRAESDPWQD | 2 |
